Key:
His-tagged ABL1 kinase [1] = biological target: T1, His-tagged ABL1 kinase (UniProt P00519 1-1130); test: SPR; two-state model
His-tagged ABL1 kinase [2] = biological target: T1, His-tagged ABL1 kinase; test: SPR; two-state model, kd1

T1 sequence (P00519 whole entry): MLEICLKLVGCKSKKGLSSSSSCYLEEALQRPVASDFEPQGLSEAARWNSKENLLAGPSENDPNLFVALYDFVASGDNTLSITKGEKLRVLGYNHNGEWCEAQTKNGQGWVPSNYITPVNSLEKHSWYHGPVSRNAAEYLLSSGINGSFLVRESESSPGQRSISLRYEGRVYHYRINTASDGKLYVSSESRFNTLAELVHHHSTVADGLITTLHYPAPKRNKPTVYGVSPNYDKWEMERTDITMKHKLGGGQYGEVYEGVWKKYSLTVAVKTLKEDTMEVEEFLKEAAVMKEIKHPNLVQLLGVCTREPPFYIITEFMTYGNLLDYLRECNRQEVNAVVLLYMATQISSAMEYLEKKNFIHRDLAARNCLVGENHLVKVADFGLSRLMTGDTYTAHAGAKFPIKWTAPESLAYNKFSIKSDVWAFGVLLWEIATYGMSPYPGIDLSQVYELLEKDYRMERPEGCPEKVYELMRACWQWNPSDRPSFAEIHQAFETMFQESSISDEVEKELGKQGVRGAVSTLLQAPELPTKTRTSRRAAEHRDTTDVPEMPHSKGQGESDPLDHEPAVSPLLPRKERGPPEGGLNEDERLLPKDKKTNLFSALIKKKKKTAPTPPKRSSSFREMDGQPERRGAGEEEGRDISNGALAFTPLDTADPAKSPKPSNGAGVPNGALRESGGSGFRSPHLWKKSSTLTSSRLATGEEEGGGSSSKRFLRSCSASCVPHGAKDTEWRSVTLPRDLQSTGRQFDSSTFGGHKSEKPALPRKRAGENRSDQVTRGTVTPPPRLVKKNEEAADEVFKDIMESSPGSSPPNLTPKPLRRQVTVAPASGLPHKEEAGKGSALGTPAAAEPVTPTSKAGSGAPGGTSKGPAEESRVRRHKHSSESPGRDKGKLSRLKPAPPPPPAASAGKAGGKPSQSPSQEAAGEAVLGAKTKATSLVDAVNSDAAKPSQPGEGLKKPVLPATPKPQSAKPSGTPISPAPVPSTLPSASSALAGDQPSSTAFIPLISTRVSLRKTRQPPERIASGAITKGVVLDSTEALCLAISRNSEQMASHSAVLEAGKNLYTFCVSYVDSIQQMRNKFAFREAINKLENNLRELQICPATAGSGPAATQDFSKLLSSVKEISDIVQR

B1: full-length human STAT5B (M1-S787) (natural protein)
chain: MAVWIQAQQLQGEALHQMQALYGQHFPIEVRHYLSQWIESQAWDSVDLDNPQENIKATQLLEGLVQELQKKAEHQVGEDGFLLKIKLGHYATQLQNTYDRCPMELVRCIRHILYNEQRLVREANNGSSPAGSLADAMSQKHLQINQTFEELRLVTQDTENELKKLQQTQEYFIIQYQESLRIQAQFGPLAQLSPQERLSRETALQQKQVSLEAWLQREAQTLQQYRVELAEKHQKTLQLLRKQQTIILDDELIQWKRRQQLAGNGGPPEGSLDVLQSWCEKLAEIIWQNRQQIRRAEHLCQQLPIPGPVEEMLAEVNATITDIISALVTSTFIIEKQPPQVLKTQTKFAATVRLLVGGKLNVHMNPPQVKATIISEQQAKSLLKNENTRNDYSGEILNNCCVMEYHQATGTLSAHFRNMSLKRIKRSDRRGAESVTEEKFTILFESQFSVGGNELVFQVKTLSLPVVVIVHGSQDNNATATVLWDNAFAEPGRVPFAVPDKVLWPQLCEALNMKFKAEVQSNRGLTKENLVFLAQKLFNNSSSHLEDYSGLSVSWSQFNRENLPGRNYTFWQWFDGVMEVLKKHLKPHWNDGAILGFVNKQQAHDLLINKPDGTFLLRFSDSEIGGITIAWKFDSQERMFWNLMPFTTRDFSIRSLADRLGDLNYLIYVFPDRPKDEVYSKYYTPVPCESATAKAVDGYVKPQIKQVVPEFVNASADAGGGSATYMDQAPSPAVCPQAHYNMYPQNPDSVLDTDGDFDLEDTMDVARRVEELLGRPMDSQWIPHAQS
Kd (His-tagged ABL1 kinase [1]): 280 nM
koff (His-tagged ABL1 kinase [2]): 93.9 s⁻¹
